One data set deals with T1, CIRV p19 (Carnation Italian ringspot virus, UniProt Q66104 1-172).
T1 sequence: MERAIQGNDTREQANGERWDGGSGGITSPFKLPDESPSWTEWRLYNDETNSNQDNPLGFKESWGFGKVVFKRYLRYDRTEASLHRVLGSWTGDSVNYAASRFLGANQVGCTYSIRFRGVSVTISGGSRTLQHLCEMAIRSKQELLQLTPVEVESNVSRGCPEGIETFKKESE
Nature of the data set: EMSA. To be noted: protein: recombinant, tags: GST tag removed (PreScission, pGEX-6P-1), chain copies: 2, label: 5'-32P, 3' overhangs 2 nt.

For data set [1], the target named is T2, TAV 2b (Tomato aspermy virus, UniProt Q8UYT3 1-95).
T2 sequence: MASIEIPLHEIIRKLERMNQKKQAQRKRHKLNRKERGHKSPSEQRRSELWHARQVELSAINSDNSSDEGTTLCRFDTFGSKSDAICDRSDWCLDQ
Briefly: competition; Kc vs labeled gf698. The settings on record: protein: recombinant, tags: His-SUMO removed, chain copies: 2, label: 5'-32P, 3' overhangs 2 nt.

The target in data set [2] is T2, TAV 2b. Briefly: EMSA. The settings on record: protein: recombinant; tags: His-SUMO removed; chain copies: 2; label: 5'-32P; 3' overhangs 2 nt.
Data set [3] deals with the molecule itself. Briefly: AUC; analytical ultracentrifugation at protein concentrations of 1.2-13 uM (CIRV p19); data not shown; procedure as in ref. 36.

B1: miR162-13gU/7*G (dsRNA)
RNA 1: UCGAUAAACCUCUGCAUCCAG
RNA 2: GGAUGCGGAGGUUCAUCGAUC
modifications: 5'-phosphate
As for B1, the Kd with CIRV p19 (G-U wobble) is 1.82 ± 0.38 nM.

B2: miR162-14gU/6*G (dsRNA)
RNA 1: UCGAUAAACCUCUUCAUCCAG
RNA 2: GGAUGGAGAGGUUCAUCGAUC
modifications: 5'-phosphate
As for B2, the dissociation constant Kd with CIRV p19 (G-U wobble) came out at 0.45 ± 0.08 nM.

B3: AtmiR168a variant 4 (dsRNA)
RNA 1: UCGCUUGGUGCAGGUCGGGAA
RNA 2: CCCGACCUGCAUCAAAUGAAU
modifications: 5'-phosphate
As to B3, in the data set with CIRV p19 (G-U wobbles), the Kd was 2.65 ± 0.49 nM.

B4: AtmiR162 (dsRNA)
RNA 1: UCGAUAAACCUCUGCAUCCAG
RNA 2: GGAGGCAGCGGUUCAUCGAUC
modifications: 5'-phosphate
Consider B4, for which the Ki with TAV 2b [1] (mismatches) was 0.67 ± 0.09 nM. The Kd with CIRV p19 (mismatches) was determined as 0.06 ± 0.02 nM.

B5: miR162-10gC/10*C (dsRNA)
RNA 1: UCGAUAAACCUCUGCAUCCAG
RNA 2: GGAUGCAGACGUUCAUCGAUC
modifications: 5'-phosphate
As to B5, in the data set with CIRV p19 (C/C mismatch), the Kd stood at 1.73 ± 0.57 nM.

B6: AtmiR168a (dsRNA)
RNA 1: UCGCUUGGUGCAGGUCGGGAA
RNA 2: CCCGCCUUGCAUCAACUGAAU
modifications: 5'-phosphate
Regarding B6, the Ki with TAV 2b [1] (mismatches and G-U wobbles) came to 12.1 ± 0.7 nM. For the same molecule, the Kd with CIRV p19 (mismatches and G-U wobbles) was 2.49 ± 0.88 nM.

B7: gf698 siRNA (dsRNA)
RNA 1: UAGUUCAUCCAUGCCAUGUGU
RNA 2: ACAUGGCAUGGAUGAACUAUA
modifications: 5'-phosphate
For B7, the Ki with TAV 2b [1] amounted to 0.53 ± 0.08 nM. The Kd turned out to be 0.68 ± 0.15 nM in the data set with TAV 2b [2] and 0.06 ± 0.04 nM with CIRV p19.

B8: miR162-16gA/4*G (dsRNA)
RNA 1: UCGAUAAACCUCUGCAUCCAG
RNA 2: GGAGGCAGAGGUUCAUCGAUC
modifications: 5'-phosphate
As for B8, the Kd with CIRV p19 (G/A mismatch) is 0.38 ± 0.13 nM.

B9: miR162-18gU/2*G (dsRNA)
RNA 1: UCGAUAAACCUCUGCAUUCAG
RNA 2: GGAUGCAGAGGUUCAUCGAUC
modifications: 5'-phosphate
With B9, the Kd with CIRV p19 (G-U wobble) came out at 0.13 ± 0.03 nM.

B10: p19 protein of Carnation Italian ringspot virus (CIRV) (natural protein)
chain: MERAIQGNDTREQANGERWDGGSGGITSPFKLPDESPSWTEWRLYNDETNSNQDNPLGFKESWGFGKVVFKRYLRYDRTEASLHRVLGSWTGDSVNYAASRFLGANQVGCTYSIRFRGVSVTISGGSRTLQHLCEMAIRSKQELLQLTPVEVESNVSRGCPEGIETFKKESE
notes: p19 suppressor of RNA silencing, Carnation Italian ringspot virus (Tombusvirus); the p19 ORF cloned into pGEX-6P-1, GST removed with PreScission protease; Residues of the vector may be left at the N-terminus after PreScission cleavage (surmised); also called CIRV p19; p19 wt; source: E. coli BL21 (DE3) RIPL, purified (GSTrap, PreScission cleavage, Resource Q anion exchange)
As for B10, the “stoichiometry N” value in data set [3] was 2.

B11: miR162-11gU/9*G (dsRNA)
RNA 1: UCGAUAAACCUCUGCAUCCAG
RNA 2: GGAUGCAGGGGUUCAUCGAUC
modifications: 5'-phosphate
For the molecule B11, the Kd with CIRV p19 (G-U wobble) came to 0.14 ± 0.12 nM.

B12: miR162-12gC/8*C (dsRNA)
RNA 1: UCGAUAAACCUCUGCAUCCAG
RNA 2: GGAUGCACAGGUUCAUCGAUC
modifications: 5'-phosphate
For B12, in the data set with CIRV p19 (C/C mismatch), the Kd came out at 0.28 ± 0.24 nM.

B13: miR162-10gC/10*A (dsRNA)
RNA 1: UCGAUAAACCUCUGCAUCCAG
RNA 2: GGAUGCAGAAGUUCAUCGAUC
modifications: 5'-phosphate
Take B13: the Kd with CIRV p19 (A/C mismatch) is 0.35 ± 0.24 nM.

B14: miR162-12gU/8*G (dsRNA)
RNA 1: UCGAUAAACCUUUGCAUCCAG
RNA 2: GGAUGCAGAGGUUCAUCGAUC
modifications: 5'-phosphate
Consider B14, for which the Kd with CIRV p19 (G-U wobble) is 1.93 ± 0.13 nM.

B15: AtmiR168a variant 1 (dsRNA)
RNA 1: UCGCUUGGUGCAGGUCGGGAA
RNA 2: CCCGCCCUGCAUCAACUGAAU
modifications: 5'-phosphate
Consider B15, for which the Kd with CIRV p19 (mismatches and G-U wobbles) was 3.13 ± 1.67 nM.

B16: miR162-0 (dsRNA)
RNA 1: UCGAUAAACCUCUGCAUCCAG
RNA 2: GGAUGCAGAGGUUCAUCGAUC
modifications: 5'-phosphate
Regarding B16, the Kd with CIRV p19 worked out at 0.15 ± 0.06 nM.

B17: AtmiR168a variant 2 (dsRNA)
RNA 1: UCGCUUGGUGCAGGUCGGGAA
RNA 2: CCCGCCUUGCACCAACUGAAU
modifications: 5'-phosphate
B17: the Ki in the data set with TAV 2b [1] (mismatches and G-U wobbles) came out at 1.1 ± 0.2 nM. Also, the Kd with CIRV p19 (mismatches and G-U wobbles) came to 0.71 ± 0.28 nM.

B18: AtmiR168a variant 5 (dsRNA)
RNA 1: UCGCUUGGUGCAGGUCGGGAA
RNA 2: CCCGACUUGCACCAAGUGAAU
modifications: 5'-phosphate
For B18, in the data set with TAV 2b [1] (G-U wobbles), the Ki is 1.4 ± 0.2 nM. Further, in the data set with CIRV p19 (G-U wobbles), the Kd was determined as 0.48 ± 0.17 nM.

B19: miR162-18gC/2*C (dsRNA)
RNA 1: UCGAUAAACCUCUGCAUCCAG
RNA 2: GCAUGCAGAGGUUCAUCGAUC
modifications: 5'-phosphate
As for B19, the Kd with CIRV p19 (C/C mismatch) was found to be 0.12 ± 0.08 nM.

B20: miR162-10gU/10*G (dsRNA)
RNA 1: UCGAUAAACUUCUGCAUCCAG
RNA 2: GGAUGCAGAGGUUCAUCGAUC
modifications: 5'-phosphate
In the case of B20, the Kd with CIRV p19 (G-U wobble) came to 0.63 ± 0.21 nM.

B21: AtmiR168a variant 3 (dsRNA)
RNA 1: UCGCUUGGUGCAGGUCGGGAA
RNA 2: CCCGCCCUGCACCAACUGAAU
modifications: 5'-phosphate
Turning to B21, in the data set with TAV 2b [1] (mismatches), the Ki was found to be 2.2 ± 0.4 nM. For the same molecule, in the data set with CIRV p19 (mismatches), the Kd was determined as 1 ± 0.24 nM.

B22: miR162-19gC/1*C (dsRNA)
RNA 1: UCGAUAAACCUCUGCAUCCAG
RNA 2: CGAUGCAGAGGUUCAUCGAUC
modifications: 5'-phosphate
For the molecule B22, the Kd with CIRV p19 (C/C mismatch) was 0.34 ± 0.15 nM.

B23: miR162-17gU/3*G (dsRNA)
RNA 1: UCGAUAAACCUCUGCAUCCAG
RNA 2: GGGUGCAGAGGUUCAUCGAUC
modifications: 5'-phosphate
For the molecule B23, in the data set with CIRV p19 (G-U wobble), the Kd stood at 0.09 ± 0.04 nM.

B24: miR162-11gU/9*C (dsRNA)
RNA 1: UCGAUAAACCUCUGCAUCCAG
RNA 2: GGAUGCAGCGGUUCAUCGAUC
modifications: 5'-phosphate
For B24, the Kd in the data set with CIRV p19 (C/U mismatch) was 0.22 ± 0.03 nM.

B25: miR162-13gU/7*C (dsRNA)
RNA 1: UCGAUAAACCUCUGCAUCCAG
RNA 2: GGAUGCCGAGGUUCAUCGAUC
modifications: 5'-phosphate
Consider B25, for which, in the data set with CIRV p19 (C/U mismatch), the Kd came to 1.01 ± 0.1 nM.

B26: miR162-12gC/8*A (dsRNA)
RNA 1: UCGAUAAACCUCUGCAUCCAG
RNA 2: GGAUGCAAAGGUUCAUCGAUC
modifications: 5'-phosphate
For the molecule B26, in the data set with CIRV p19 (A/C mismatch), the Kd came to 0.16 ± 0.03 nM.

B27: miR162-12gG/8*G (dsRNA)
RNA 1: UCGAUAAACCUGUGCAUCCAG
RNA 2: GGAUGCAGAGGUUCAUCGAUC
modifications: 5'-phosphate
Turning to B27, the Kd with CIRV p19 (G/G mismatch) was determined as 0.07 ± 0.04 nM.

B28: miR162-19gU/1*G (dsRNA)
RNA 1: UCGAUAAACCUCUGCAUCUAG
RNA 2: GGAUGCAGAGGUUCAUCGAUC
modifications: 5'-phosphate
Consider B28, for which the Kd with CIRV p19 (G-U wobble) was 0.15 ± 0.12 nM.

B29: miR162-17gU/3*C (dsRNA)
RNA 1: UCGAUAAACCUCUGCAUCCAG
RNA 2: GGCUGCAGAGGUUCAUCGAUC
modifications: 5'-phosphate
On to B29, for which the Kd with CIRV p19 (C/U mismatch) was 0.3 ± 0.17 nM.

B30: miR162-14gG/6*U (dsRNA)
RNA 1: UCGAUAAACCUCUGCAUCCAG
RNA 2: GGAUGUAGAGGUUCAUCGAUC
modifications: 5'-phosphate
With B30, the Kd with CIRV p19 (U-G wobble) is 0.15 ± 0.09 nM.

B31: miR162-16gU/4*G (dsRNA)
RNA 1: UCGAUAAACCUCUGCUUCCAG
RNA 2: GGAGGCAGAGGUUCAUCGAUC
modifications: 5'-phosphate
For the molecule B31, in the data set with CIRV p19 (G-U wobble), the Kd came out at 0.17 ± 0.05 nM.

B32: AtmiR168a variant 6 (dsRNA)
RNA 1: UCGCUUGGUGCAGGUCGGGAA
RNA 2: CCCGACCUGCACCAAGCGAAU
modifications: 5'-phosphate
As for B32, the Ki with TAV 2b [1] turned out to be 0.38 ± 0.05 nM. Further, the Kd with CIRV p19 amounted to 0.34 ± 0.16 nM.

B33: miR162-13gG/7*U (dsRNA)
RNA 1: UCGAUAAACCUCGGCAUCCAG
RNA 2: GGAUGCUGAGGUUCAUCGAUC
modifications: 5'-phosphate
Regarding B33, in the data set with CIRV p19 (U-G wobble), the Kd is 1.53 ± 0.49 nM.

B34: miR162-15gC/5*C (dsRNA)
RNA 1: UCGAUAAACCUCUGCAUCCAG
RNA 2: GGAUCCAGAGGUUCAUCGAUC
modifications: 5'-phosphate
Regarding B34, in the data set with CIRV p19 (C/C mismatch), the Kd worked out at 0.23 ± 0.08 nM.

B35: miR162-12gG/8*U (dsRNA)
RNA 1: UCGAUAAACCUGUGCAUCCAG
RNA 2: GGAUGCAUAGGUUCAUCGAUC
modifications: 5'-phosphate
As for B35, the Kd with CIRV p19 (U-G wobble) came out at 0.31 ± 0.08 nM.

B36: miR162-14gG/6*A (dsRNA)
RNA 1: UCGAUAAACCUCUGCAUCCAG
RNA 2: GGAUGAAGAGGUUCAUCGAUC
modifications: 5'-phosphate
Turning to B36, the Kd in the data set with CIRV p19 (A/G mismatch) was 0.86 ± 0.49 nM.

B37: miR162-15gU/5*G (dsRNA)
RNA 1: UCGAUAAACCUCUGUAUCCAG
RNA 2: GGAUGCAGAGGUUCAUCGAUC
modifications: 5'-phosphate
Turning to B37, the Kd with CIRV p19 (G-U wobble) is 0.1 ± 0.01 nM.
